Measurements taken from the supplement of paper PMC9170038.

tested on: K4 kissing-loop RNA reporter; assay: apparent KD of K4 kissing-loop reporter; higher = weaker reporter binding; conditions: Eterna round: R107; input ligand: tryptophan 2.4 mM
Method: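 RNA-MaP round R107: designed RNA switches with theophylline, tryptophan, arginine or FMN aptamers are transcribed on-chip within common flanks. They are titrated with a labelled K4 kissing-loop RNA reporter in RNA-MaP buffer (100 mM Tris pH 7.5, 80 mM KCl, 4 mM MgCl2), without ligand or with the indicated ligand. Median apparent KD per design.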
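Further: bound reporter read as fluorescence of individual clusters on recovered sequencing chips by microscopy, with normalized cluster intensities fitted with a binding model.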

“GUAUGUGGAAACACGUACUUGUAUCCUAAGCAGGAUAUGCGGAAACGCAGAAGGGCUACCAGCGAGUUUAUCCAGUGAUGUUGGA [Ex FMN A 12]” and “AAUUUCGGAUACAUCAUAGUUUUAAUUCGGCGAGGACCGGUACGGCCGCCACUCGGUAUAGACGCGUCCAGUGAUGUUGGCGCUU [theeternabot_sameState_KL_Trp_A_45]” are within 1.5-fold of each other in “apparent KD of K4 kissing-loop reporter” value: 0.288 µM for the first, 0.223 µM for the second.

Compared with “UGGAUAUCGUUUAGUCUGGUGAGCUCAGAUACCAGACUAGCGAUGGUCCCUUGGCAGCUGAUUACGAUUGAGUGAUGUUCAAUCG [Theo A Ex t9c]”, “UUUAUUAAGACGGCCGCCACUGAAUUAGAGUGAUGUUCUAAAAUUUUUAAUUUUUUUUUUUUCAGCAGGACCGGGUCAAUUAUUA [JR_SSTryptoB_Sub012]” is 1.7-fold lower in “apparent KD of K4 kissing-loop reporter” value: 0.158 µM for the first, 0.0945 µM for the second.

Going from “AACGUUUUGAGAAGGAGCGCGAUAAGCAGUGAUGUUGCUAUAAUUCUAUUUCUAUUUAAUUCGCAGGUAGGUCGCUCAAUACGUA [JR_SSArginiB_Sub019]” to “AAGGUAUCACCACAACAUCACUAAGGUGAUACCAGCAUCGAAAGAUGCCCUUGGCAGCACCAACUUGCAGUGAUGUUGCAAGUAA [(T)'-(H)'-(T1)-(T2)-(H1)-(H2)_Design9]”, the “apparent KD of K4 kissing-loop reporter” value rises from 0.119 µM to 0.366 µM (3.1-fold).

Going from “GCAGGACGAGGAGGAGGAUGAAUUACUGAAGGAGCGCAUAUUUUUGCAGGUAGGUCGCGGUAAACAAGUAUAGUGAUGUUAUAUA [SSArgA.M]” to “CUGGGUUGACGAAAAGUCAACAAAUGAGAAGGAGCGCACGAAAGUGCAGGUAGGUCGCUCAAUCCAGUGAUGUUGGGUCAUCCAG [#SwitchBubble 13 #K4Late]”, the “apparent KD of K4 kissing-loop reporter” value rises from 0.264 µM to 0.731 µM (2.8-fold).

“ACCCGGGCCCGAAAGGGCCCGGGAAGAGAUACCAGCAGCGAAAGCUGCCCUUGGCAGCUCACUUAGUGAUGUUGAGAAUAGGGCG [#21 K4 Theophylline A Same State]” and “GGCAGUGAUGUUGCCAGUGGCAGAUGAGAAGGAGCGUGGUGAGACACAGGUAGGUCGCUCAUUGAAAUUGCUGUCACUAAAAUGC [#5]” are within 1.5-fold of each other in “apparent KD of K4 kissing-loop reporter” value: 0.225 µM for the first, 0.215 µM for the second.

First: GAUUUAGAGGCGGCCGCCACUAGUGAUGUUAGUGAUGUUUGAUACGGAAUAUAUCUGCGAGUAGAUAGGACCGGGCCAGAUGGAG [rttrbmullin]
Second: UUAUAUAAUUUGUCUUUUUUAACAUUAAGUCAGGAUAUCGUAUAUUCGAGAAGGGACACAUGCUAGUGAUGUUAGCUAUUUCUUU [JR_ExcFMNA_Sub016]
The “apparent KD of K4 kissing-loop reporter” value of the first is 5.9-fold higher: 0.181 µM for the first, 0.0306 µM for the second.

“AUACGUUUAAGUGAUACCAGACUGGUGAGUGAUGUUUACCAAUAAAUUAAAUUAUUAGCUGUCCCUUGGCAGCACAGUUUAUUUA [JR_ExcTheophyB_Sub005]” and “UGAGUGAUGUUCAAGGACUAGAUCUAAAUAAAGGAUAUAGCAUACGCUAGAAGGUUAAAAUUUCUGGAUCCCAGUUUAAACCUUU [theeternabot_sameState_KL_FMN_A_49]” are within 1.5-fold of each other in “apparent KD of K4 kissing-loop reporter” value: 0.229 µM for the first, 0.195 µM for the second.

“UGGCGUUGAACCGCCGAAUCGCUGUGAGAAGGAGCGGUAAAAUUGCCAGGUAGGUCGCUCACAGCUUCACAGUGAUGUUGUGGAA [Enxeisen]” and “ACGUAGUACGUAGGAUAUCAGAGAUCAGUUAGUGAGAUCGAGUGAUGUUCGAUCAAGUGUUCAUUUUGAGAAGGAUGUAGUAGGA [KL-SSFMN-B7]” are within 1.5-fold of each other in “apparent KD of K4 kissing-loop reporter” value: 0.188 µM for the first, 0.238 µM for the second.

“GGAGAGCGGAACGAUACCAGCUGCGGCACGCACCGGAAGUUAAGCCAGUGAUGUUGGCGGAGCCCUUGGCAGCGUGCGCGCGUCC [Abeusma]” and “GGUUGAAGUACCCGGAGUGAUGUUCCGGAUACCAGCAAACCAACUUGCCCUUGGCAGCCGUAUAGCGUCCGGUGGACCGAGCAUA [Soriesreve]” are within 1.5-fold of each other in “apparent KD of K4 kissing-loop reporter” value: 0.105 µM for the first, 0.0787 µM for the second.

“GCCGAAUCGUUGGGCUCAGUGAUGUUGAUCCGAGGACCGGUACGGCCGCCACUCGAAUGGCAGUGACCACACUGGUAACGUUAAA [theeternabot_exclusion_KL_Trp_A_43]” and “GGAGUUACCUGGGAUACCAGUCGGAGUCUCAGAGCACGGAGUGAUGUUCUGGGAUGUUUCGGCCCUUGGCAGCUCUGGGACUCCA [#2 Exclusion - Theophylline B Attempt #15 (HarryS)]” are within 1.5-fold of each other in “apparent KD of K4 kissing-loop reporter” value: 0.261 µM for the first, 0.228 µM for the second.

“UCUGGUAUAUCUGAUACCAGAGAAUAGAAUCAAUUGAAUAUGGAGUGAUGUUCCAUAAAACUCCCUUGGCAGCAGAUAAUCAUAU [Same State Theophylline B GF 22]” and “AGACCUCAGUGAUGUUGAGGUAACGCUGAUACCAGUGACUUAAUUCACCCUUGGCAGCAGUCCACCAAGGUAUCUGAUUAGGUCU [Theo A Ex t5]” are within 1.5-fold of each other in “apparent KD of K4 kissing-loop reporter” value: 0.112 µM for the first, 0.138 µM for the second.

Compared with “CUUUAUCAACCAGAUACCAGCGGUUCUCUAGUUGGCUUCCGUAGUGAUGUUGCGUGGUCCCGCCCUUGGCAGCUGGCCAUGACUA [theeternabot_sameState_KL_Theo_B_5]”, “AGGAGCGUGGGAUGGAAAUCGCACGCUCCUCGAGGACCGGUACGGCCGCCACUCGCUCGCGCCGAGUGAUGUUCGGCCGGCGAAC [#2 Same State - Tryptophan A Attempt #11 (HarryS)]” is 2.1-fold lower in “apparent KD of K4 kissing-loop reporter” value: 0.993 µM for the first, 0.482 µM for the second.

“UAGUAGUAGCGAGGAUAUGCAAUAGGCGAGUGAUGUUCGCCAGGCGGGCGUCGCAUAUAAGAAAGAGCAGAAGGCGCUAGGUAGA [SameState - FMN B / A]” and “AAGCAGUCACUCGAAGCCAUCGAAGAUGGCCGAGGACCGGUACGGCCGCCACUCGGAGUGAUGUUCCGAAGACUGCAAAAUAAAA” are within 1.5-fold of each other in “apparent KD of K4 kissing-loop reporter” value: 0.399 µM for the first, 0.306 µM for the second.

“AACGGCCAGUCGGCCGCCACUCAAAGCAGUGAUGUUGCUAACUUUCUAAAAGAGUGAUGUUCUUAGAGGACCGGGACUAAUGUAA [Exclusion Tryptophan B GF 2]” was tested, and the “apparent KD of K4 kissing-loop reporter” value was 0.102 µM.
